# Test results as given in article PMC9886945.
# Several values for one entry are separate records, joined by “and”; a condition that tells them apart may be missing. Identical values can stand only once.
# How the values were obtained:
# [1] = target: Mycobacterium tuberculosis RNA polymerase core (M. tuberculosis) (UniProt P9WGZ1); assay: SEC
# [2] = target: Mycobacterium tuberculosis RNA polymerase holoenzyme with the σ^B subunit (M. tuberculosis) (UniProt P9WGZ1); assay: negative stain EM
# [3] = target: Mycobacterium tuberculosis RNA polymerase holoenzyme with the σ^B subunit (M. tuberculosis) (UniProt P9WGZ1); assay: SEC
# [4] = target: Mycobacterium tuberculosis RNA polymerase holoenzyme with the σ^B subunit (M. tuberculosis) (UniProt P9WGZ1); assay: cryo-EM structure
substance,measurement,setting,value
Mycobacterium tuberculosis RNA polymerase core (from UniProt P9WGZ1;P9WGY9;P9WGY7;P9WGY5) (complex),stoichiometry N,[1],2
"Mycobacterium tuberculosis RNA polymerase holoenzyme with the σ^B subunit, P9WGZ1;P9WGY9;P9WGY7;P9WGY5;P9WGI5",RNAP concentration from which octamers form,[2],0.1 µM
same,percent of molecules in oligomers after 24 h at 4 °C,[2],86%
same,stoichiometry N,[2],8
same,stoichiometry N,[3],8
same,percent of oligomer particles that are octamers,[4],80%
same,percent of oligomer particles that are tetramers,[4],20%
same,stoichiometry N,[4],8 and 4
